Measured values published in paper PMC13190736.

Columns and labels:
[1] = molecular target: staphylococcal enterotoxin C (SEC-2), wild type (Staphylococcus aureus) (UniProt P34071); assay: ELISA
[2] = molecular target: staphylococcal enterotoxin C (SEC-2), wild type (Staphylococcus aureus) (UniProt P34071); assay: SPR

B1: Nb C107 (VHH)
VHH: QVQLVESGGGLVQPGGSLRLSCAPSGSTSGIYASGWYRQVPGKPQEWLADISRGGSTKYADSVKGRFTISRDNAKNTVYLQMNSLKPEDTATYYCRVIDTLGAEYRGQGTQVTVSS
EC50 [1]: 2.5 nM

B2: Nb C112 (VHH)
VHH: QVQLVESGGGLVQAGGSLRLSCTASERMYGIEMGWFRQAPGKERELVAAITWSGVVSHLQESVKGRFTISRDNPKKTVYLQMNSLKPEDTATYYCAGHRLQWASGYTRHDYGSWGQGTQVTVSS
Kd [2]: 0.179 nM
